Laboratory results reported in paper PMC10066210, “The structural basis of the pH-homeostasis mediated by the Cl^−/HCO3^− exchanger, AE2” (Nature Communications, 2023).

Biological target: the molecule itself
Assay: cryo-EM structure; hAE2 in GDN, about 10 mg/mL; samples in KNO3 pH 7.25 to 6.55, Tris-HCl pH 8.32, NaCl, 50 mM NaHCO3, or DIDS with NaHCO3; C2 symmetry (one class C1)

B1: human anion exchanger 2 (AE2), residues 177-1241 (natural protein, UniProt P04920 177-1241, looked up)
chain: LPHQEATPRASKGAQAGTQVEEAEAEAVAVASGTAGGDDGGASGRPLPKAQPGHRSYNLQERRRIGSMTGAEQALLPRVPTDEIEAQTLATADLDLMKSHRFEDVPGVRRHLVRKNAKGSTQSGREGREPGPTPRARPRAPHKPHEVFVELNELLLDKNQEPQWRETARWIKFEEDVEEETERWGKPHVASLSFRSLLELRRTLAHGAVLLDLDQQTLPGVAHQVVEQMVISDQIKAEDRANVLRALLLKHSHPSDEKDFSFPRNISAGSLGSLLGHHHGQGAESDPHVTEPLMGGVPETRLEVERERELPPPAPPAGITRSKSKHELKLLEKIPENAEATVVLVGCVEFLSRPTMAFVRLREAVELDAVLEVPVPVRFLFLLLGPSSANMDYHEIGRSISTLMSDKQFHEAAYLADEREDLLTAINAFLDCSVVLPPSEVQGEELLRSVAHFQRQMLKKREEQGRLLPTGAGLEPKSAQDKALLQMVEAAGAAEDDPLRRTGRPFGGLIRDVRRRYPHYLSDFRDALDPQCLAAVIFIYFAALSPAITFGGLLGEKTQDLIGVSELIMSTALQGVVFCLLGAQPLLVIGFSGPLLVFEEAFFSFCSSNHLEYLVGRVWIGFWLVFLALLMVALEGSFLVRFVSRFTQEIFAFLISLIFIYETFYKLVKIFQEHPLHGCSASNSSEVDGGENMTWAGARPTLGPGNRSLAGQSGQGKPRGQPNTALLSLVLMAGTFFIAFFLRKFKNSRFFPGRIRRVIGDFGVPIAILIMVLVDYSIEDTYTQKLSVPSGFSVTAPEKRGWVINPLGEKSPFPVWMMVASLLPAILVFILIFMETQITTLIISKKERMLQKGSGFHLDLLLIVAMGGICALFGLPWLAAATVRSVTHANALTVMSKAVAPGDKPKIQEVKEQRVTGLLVALLVGLSIVIGDLLRQIPLAVLFGIFLYMGVTSLNGIQFYERLHLLLMPPKHHPDVTYVKKVRTLRMHLFTALQLLCLALLWAVMSTAASLAFPFILILTVPLRMVVLTRIFTDREMKCLDANEAEPVFDEREGVDEYNEMPMPV
notes: Anion exchanger 2 (AE2, SLC4A2), human; A TEV protease site lies between the N-terminal Flag-8xHis tags and AE2; Solubilised in LMNG/CHS/GDN and kept in GDN; Residues 1-319, 433-498, 643-672 and 856-893 are not modelled in the structures; also called hAE2; AE2^177-1241; source: Expi293 cells, transiently transfected, purified (anti-Flag beads, SEC in GDN)
  stoichiometry N: 2
